# Data published in a protein production outcome set (Wang et al. 2014).
# Test: label from the status in PepcDB records
# 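Note: failed if final PepcDB status was selected cloned or expressed and not failed if soluble or beyond.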
row,Sequence,protein production
1,MNNINTIIQREYMIRVRKKSFLVMTILMPILFVGLVSLPIVLAQLGGDMKTIAIADRTGEYEQLFKENDEFRFVHAEKTAEEYRKMGADKSGIDAVLEIRQDLLEDPNAVAIYGYKQLPASVSNHISRILSDYLSDKKIASYNIPDIKQILADSKIELSVHTYKWSEDGTNERTSGELASGISMMMMVVIFFLIMTLAAMVQAGVLEEKKNRIMEVMVSSTRPFNLMMGKIIGIGLVGLTQLICWGVLTVLLLTVAQIAFLGNLYSPEALSRMQASDITGMASSMNAEDFAEMKEVMNIIGGINFGELFVMFLIFFIGGYLLYSSIFAVIGSMVSNDEDTSQFMMPVMILLMFGFYAAYGSMNNPEGSLAFWCSLIPFTSPLVMMVRLPYDVPLWQELLSIGLLYGCFVLMTWIGAKIYRVGVLMYGKKPSIKEIIRWINYK,failed
2,MSETDLLLKMVRQPVKLYSVATLFHEFSEVITKLEHSVQKEPTSLLSEENWHKQFLKFAQALPAHGSASWLNLDDALQAVVGNSRSAFLHQLIAKLKSRHLQVLELNKIGSEPLDLSNLPAPFYVLLPESFAARITLLVQDKALPYVRVSFEYWHA,not failed
3,GGRAVARTLIQDVTERVRSRKKLEHYREYTDRLLDAIDDLFLVFDEEAKLTRWNDRVVEVTGYADEALGGMEALGFVPEEERERVASQIADGFMTGHAKMDIPLRRADGTTVPYEIAGNLVDRP,failed
4,SPARPFTVRAPASSANLGPGFDSLGLSVPLYTTLRVTPQDKAEVVPLGTELADTPADESNYVYRAMTLAAKRAGRTLPPARVEIETEVPLARGLGSSAAALVAGVVAGNELLGRPLDDETVLDVTAREEGHPDNVAPALFGGIVVATLDKLGTHY,failed
5,MALTEAWLIEKANRKLNAGGMYKITSDKTRNVIKKMAKEGIYLCVAQGYRSTAEQNALYAQGRTKPGAIVTNAKGGQSNHNYGVAVDLCLYTNDGKDVIWESTTSRWKKVVAAMKAEGFKWGGDWKSFKDYPHFELCDAVSGEKIPAATQNTNTNSNRYEGKVIDSAPLLPKMDFKSSPFRMYKVGTEFLVYDHNQYWYKTYINDKLYYMYKSFCDVVAKKDAKGRIKVRIKSAKDLRIPVWNNTKLNSGKIKWYAPNTKLAWYNNGKGYLELWYPSDGWYYTANYFLK,failed
6,MRKIMREIAVYGKGGIGKSTLSANLSAALALAGRKVLQIGCDPKHDSTRLLTHGREMPTVLDYMRVTNPLDYRLEEVLAHGFSGVGCVEAGGPNPGVGCAGRGIISTFEFLDRFRLKERYDTVVYDVLGDVVCGGFAVPIRKEYADTIFIVTSGEFMALYAANNILRGVRNYDNEEKRIAGILYNRRNIEGEDDRVARFAGAVGLSVCAVIPRSDSFTRAERGKMTVMEQGSDKAIMSIFSGLAQALISGCALHEAKPLTDNELEAIVLGSISSTGGPLSGPDSLPASVTEEPSAAGPPPEIGLTDPNRYLSKNILRSEPLHGCAFNGAMSVGAQISDAVILAHSPKSCTHIMYQTISSAGRRTLFERGALLPVSLAPNLESTDMGEAEMIFGGMEKLEEKILELKARQPRAIVVVSACPAGIIGDDIGRTRRFSEPGLPVVTLKTDGNLAGDYLQGMLMAYTSLARQVIRKDVPTLPDTVNIVFEKFIVTNTNDNFQTIGSLLSRLGVRVNCRFLCETTFDSLETFCTAQLNLLAYKDYTGKLLEDFFTREYGSVFLDRAFPVGFAETEDWLRDVAAFFGRPAAAEGIIEEHKELYAREVEALKADLAGKRLMIITYNHELDWILKTALDVGIDIVKIGVFNFSQDEGFRTRLDAAFNVVENYDRGERDQDIAAYKPDILLTNYASSLADEPFVADTIPMCPDVGFHSGLVLARRWARLLKLNLKGEWRQDELLFRQYYAG,failed
7,MQMLRNLSTRTRSRRGGYERVSDDSTFSLLGAKLRRSTSVPYYAPSIRLGGDFPVILEKLPRQKPTKTVVTSKLSHPIFSLFDGYRRHNKKKATAKPEFSRYHEYLKESGMWDLRSNSPVIYFK,failed
8,MMGRVAMLTGSRGLRYATVIALVAALVGGVYVLSSTGNKRTIVGYFTSAVGLYPGDQVRVLGVPVGEIDMIEPRSSDVKITMSVSKDVKVPVDVQAVIMSPNLVAARFIQLTPVYTGGAVLPDNGRIDLDRTAVPVEWDEVKEGLTRLAADLSPAAGELQGPLGAAINQAADTLDGNGDSLHNALRELAQVAGRLGDSRGDIFGTVKNLQVLVDALSESDEQIVQFAGHVASVSQVLADSSANLDQTLGTLNQALSDIRGFLRENNSTLIETVNQLNDFAQTLSDQSENIEQVLHVAGPGITNFYNIYDPAQGTLNGLLSIPNFANPVQFICGGSFDTAAGPSAPDYYRRAEICRERLGPVLRRLTVNYPPIMFHPLNTITAYKGQIIYDTPATEAKSETPVPELTWVPAGGGAPVGNPADLQSLLVPPAPGPAPAPPAPGAGPGEHGGGG,failed
9,MKIIRNYLYNASYQVLILLTPLITVPYVARVLGPTGVGVYSYTNSIITYFVLIGTLGITVYGNQQIAFHRDDIIERSRTFWEIELLQAVNVGITFLGFGIFLILDHRYQLFMVFQSCQLLAGAFDVSWFFMGIEDFKKTVFRNTLVKIATLGAIFIFVRTQSDLGLYILILALSQLVGNFTLWPYLKTRLVRIKFKDLKIWHHYVPALMLFVPQAANLVYQQVNKTMLGNLDTVNSVAYFDYADKLIKTVLAVVTATGIVMLPHMANLHAKGKNETIKRYLYKSFEFVSMIALPLGFGIAGIATTLAPIYFGQDFSISGKLLIIEAPVILLIGWSNVIGQQYMMPTEQISKYTKSVIIGAIVNVILNVPLIMYLGAVGAPIATVAAELSVTLYQLFVVRKQIQINLLFSDFWKYLFSSTVMFIVVYGLNVSMPMSIINLIVQIVEGMIIYLGMLLVLQPKLVVEGKSLLLGKLHK,failed
10,MICTEALQRISFSSDLGQSDKAPPPVIEPSGLIRRDETLLDSSNSDFEFHISNSFDPGDSSPADEIFADGMILPFHVTAASTVPKRLYKYELPPITSSLSPSPLSPQPLPTKHSEKETNGRASGANSDSEAEKSSKSFWSFKRSSSLNCDIKKSLICSFPRLTRSNSTGSVTNSKRAMLRDVNNHRPSSRSSCCNAYQFRPQKHTGKKGEGGGSFSVIPVLNGPSTFGLGSILRHSNSKDKTKTKKKKNKK,failed
11,MMIHMEYYLVVSTIMMFAGIYGFFTRRNTLAILISVELMLNATDINFAVFNRFLFPGELEGYFFALFSIAISAAETAIAIAIMINIYRNIRSIQVKNLDELKW,failed
12,MGHHHHHHSHLYPGSVYGRLIDLCQPTQKKYQIAVTKVLGKNMDAIIVDSEKTGRDCIQYIKEQRGEPETFLPLDYLEVKPTDEKLRELKGAKLVIDVIRYEPPHIKKALQYACGNALVCDNVEDARRIAFGGHQRHKTVALDGTLFQKSGVISG,not failed
13,MSQFWYSEETASRLAEELLQQAGEHGRIACLSAPSVYQKLKQLESVRSDGVSAVLLEFDRRFAAYGDEFVFYDYNNPLCLPEDLLPQSFDIVIADPPYLSEECLSKVTLTVKHLTKGKILLCTGAIMEEHAGKLLDLKMCSFLPRHNHNLANEFRCYVNYESRLLS,failed
14,MLKPMYYEFFFIFPKERELFESFLLDATHLALEESSLENLKAFDDKETIGFISQSNWHYFATHDPLKKDLKENLKEKPPHLKNFVILRSQKDLNNSLIPALEAFCLNLKQNLQSEFDFFYLSRNLASKDWLEAYKQAILPVQCTKFYIHPSWHQKPSHVVTNDCIMIDPALAFGSGHHESTSMCLELLSDIDLKRKNALDVGCGSGILSIALKKQGVSALVACDTDSLAVEETLKNFSLNQIPLLVQDKVIYGSTQKIEGRFDVIVANLVADVIKSLYSEFVRLCNHTLILSGILETHLNSVLQIYYNGFEVLEQRQRNEWVALKLLKKQPIN,failed
15,KMFFKVIDTLSDNYEKEMLLLEAEAKEQYYQELEKSSREVRKIKHDLKNMLLAICGKAKKQNEISEEIYKIIKELDESDKKIYTSNVVINTIINHKISQAKKLEIKTDVNIKVSKAIHIDYKDAGILLGNILDNAIEACEKIKKKERWIKIDMLHNKNTLFIEVCNSKGKELTNISKSSKSDAHNHGIGISSIKAITKKYDGYVEFVDKGEEFEVVVNLYGMSF,failed
16,MMTGRKRGMIMSRRIITIGRQYGSNGRRIAKKLSEKLGIHYYDKELIKLASEQNDISYDELVKVDEKRANPWRYPVEDPAQMESRFRFEPMNDVLFYTQAQIITRLADTEDCIIVGRCANDILKSRPTSRSIFIHAPLDYRLQTVMERTSLEEKEALSLIKKVDKQRKFYYNYYTDKKWEEMSQYDLCLDSSAMSEDEILNVLTALYESIL,failed
17,MAQTKRFVIAGGGRVGKQTAENLVDQGHDVLLIESDEERVEALSDAYIGPVIHGDATRPSILQQADLAEADAIAALTDEPGTNLAICMEAQQYAPSIRTIARAETEADHEYDEVVDATLLPEYLGGDHAADILTGEDIRTLVYPTADLDIIKVTVAPSAPVAGRRLDEIALPSGSLLISTADRTELAGADTVLKAEEQYILAVETDVVDEVLKLMRG,failed
18,LGTLFFSLEYNFERKAFVVNIKEARGLPAMDEQSMTSDPYIKMTILPEKKHKVKTRVLRKTLDPAFDETFTFYGIPYTQIQELALHFTILSFDRFSRDDIIGEVLIPLSGIELSEGKMLMNREII,not failed
19,MEEKKDFYDTDELRDFMALVEKTNDIKKIALFRILAFTGIRKGELLALEWKDYRKSTLDINKAISHSPVGYEILPPKANSNRLLSLDEKTCKILDELHQTYPESTRIFESENGGMLSPSKPRKWLLEITKEKEIEPIRIHAFRHTHASLLFESGMSLKQVQYRLGHADLKTTMNIYTHITKLEHHHHHH,not failed
20,MSVAAGGPAGAAIPESRLMALGIIGGLGGIYASTVNPVIGPVFASLGAVCAIIWGADAIRRVASYGLGTGVPSIGYMSVSIGIVGVVAGLASVFTLPALAAPVVGLILAMILGVVVAVLGKKIVKMKIPILEKCTAEISGAAALSVLGFSAAIAGSYTMQAVLTSVIATGFIGLLFILNTMAIQHPFNACLGPNENQTRTLKLAASTGFISMAIAGLLGIGLNPGWWLVSLVGALCWVVAFKSFVSASFEEAASVKWSGLWPKEEEQ,failed
21,MVVAPYLAVAIGGSLGAMSRYLVTIMAQNAWGIKFPYGTLLVNTLGSFLAGFFLIVLVGRFSAEESFRLFLFTGFLGAFTTFSSFAAESLFMFEQGYWFKLMTNILVNNVGSLSMVFIGTLVAKYVLLGHQGSN,failed
22,MIRRALLIASLAALAGCAGLDAIQNAYQGIQDYFTGKDNAEPPAPLAEITPQVKADKLWMAEIGDGYDDQGINLGPAVDDSRVFAAERHGTVQAFNRLTGEKLWSVDHEMDLSAGPVFDDGELFLATAEGAVIVLNAADGALVWKSTLASEILSVPAVADDVVVVRGTNGHLTGLDRKSGATLWYFERHAPPLAIRSRGAPIIAGDLVIDGFGGGKVSAIQLKEGRLDWEANVSLPHGRSEIERLVDLSATPVVRNDVVFVSGYQGGTASLGLNTGEVQWKRESISSPAGMTADRRELYVTDANADLWQLAIRNGEDQWKQTELHQRRLTAPALVKDYLVVGDFEGYLHVLNKEDGRIVGRVQVTDAPIEYPPVVYGDIVYVYATDGTLAAITVD,failed
23,SFSAPIEDLQVRIAFLDELVEQLNTQLALQTQEIADLKKQMQLLYQRVEASDLSEGIAPFDPNTNKPPHY,failed
24,MTSRPSSDQTWQPIDGRVALIAPASAIATDVLEATLRQLEVHGVDYHLGRHVEARYRYLAGTVEQRLEDLHNAFDMPDITAVWCLRGGYGCGQLLPGLDWGRLQAASPRPLIGFSDISVLLSAFHRHGLPAIHGPVATGLGLSPLSAPREQQERLASLASVSRLLAGIDHELPVQHLGGHKQRVEGALIGGNLTALACMAGTLGGLHAPAGSILVLEDVGEPYYRLERSLWQLLESIDARQLGAICLGSFTDCPRKEVAHSLERIFGEYAAAIEVPLYHHLPSGHGAQNRAWPYGKTAVLEGNRLRW,not failed
